Where “and” joins values, the source holds several entries; their conditions need not be identical. Identical values can stand only once. Bridges are numbered along the chain shown (N, C = ends). Where no end group is shown, it is not given here.
Experiments:
[1] = biological target: T1, extracellular domain of the alpha subunit of the human FcεRI (aa 1-176) (human, UniProt P12319 26-201); test: competitive phage ELISA on FcεRI (FIG. 2)
T1 construct: range 1-176; also called soluble FcεRI; baculovirus-derived FcεRI
T1 sequence (looked up): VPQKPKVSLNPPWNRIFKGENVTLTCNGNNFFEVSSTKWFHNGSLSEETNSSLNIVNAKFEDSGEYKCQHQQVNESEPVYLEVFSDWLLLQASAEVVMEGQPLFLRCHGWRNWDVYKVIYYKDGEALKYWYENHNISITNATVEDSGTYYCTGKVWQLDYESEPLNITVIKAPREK
Method: (§1) Phage ELISA assays were carried out as described (Lowman, 1998, supra), using Nunc Maxisorp™ plates coated with a 2 μg/mL solution of baculovirus-derived FcεRI. Peptide-phage were pre-incubated for 5–10 min with serial dilutions of receptor, then added to the receptor-coated plate. After incubation for 1 h at room temperature, the plates were washed and an anti-phage HRP-conjugated antibody (Pharmacia) was added. After further incubation for 20 min, plates were again washed and developed using the substrate OPD (Sigma). Optical density at 492 nm was read and plotted as a function of FcεRI concentration to determine an $IC50$ of inhibition by each peptide-phage variant.
These libraries were sorted for FcεRI binding as described above. […] The "linker region" (underlined) of the peptide was randomized in this library.

[2] = biological target: alpha subunit of the human FcεRI receptor expressed on cells (human) (UniProt P12319); test: IgE inhibition assay (Table 9)
[3] = biological target: T2, extracellular domain of the alpha subunit of the human FcεRI (aa 1-176), produced in baculovirus infected … (human, UniProt P12319 26-201, N-linked carbohydrate (NAG on Asn21 seen in the crystal); derivatised with PDEA for thiol coupling to the chip in the biosensor assay); test: SPR biosensor (BIAcore), peptide over immobilized FcεRIα; Kd (apparent) calculated from kon and koff
T2 construct: range 1-176; Residues 1-176 are probably counted without the signal peptide; also called FcεRIα; soluble FcεRI
T2 sequence (looked up): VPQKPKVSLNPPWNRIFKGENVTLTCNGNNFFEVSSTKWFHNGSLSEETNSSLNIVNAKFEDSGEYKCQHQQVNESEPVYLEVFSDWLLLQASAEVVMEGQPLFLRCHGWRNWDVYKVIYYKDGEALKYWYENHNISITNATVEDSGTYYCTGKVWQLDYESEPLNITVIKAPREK
Method: *peptide is a dimer. SEQ ID NO: describes each monomer of the dimer. "ava" = amino-valeric acid Several peptides were also tested in a direct-binding assay using a surface plasmon resonance biosensor (Lofas & Johnsson, *J. Chem. Soc. Commun.* 21, 1526–1528 (1990)). FcεRIα, produced in baculovirus infected insect cells, was immobilized by the surface thiol method (BIAcore Methods Manual Supplement 5a, BIAcore, Inc., Piscataway, N.J.). Briefly, receptor was reacted with 2-(2-pyridinyldithio)ethaneamine hydrochloride (PDEA; Natake & Swaisgood, *J. Biochem.* 74, 77–86 (1973)), desalted into 10 mM sodium acetate (pH 4.8) and stored in aliquots at −80° C. Thawed PDEA-receptor was injected over carboxymethyl-dextran (B1 or CM5, BIAcore, Inc.) biosensor chips preactivated with N-ethyl-N'-(3-dimethylaminopropyl)-carbodiimide hydrochloride (EDC) and N-hydroxysuccinimide (NHS), cystamine, and DTT. […] Serial dilutions of peptide in running buffer (phosphate-buffered saline containing 0.05% Tween-20, 0.01% sodium azide) were injected over the immobilized receptor, and the net amount of peptide bound at steady-state was measured as the net change in response (RU) at a point just prior to termination of peptide injection, compared to a running-buffer baseline. […] In the case of IGE134 (SEQ ID NOS:), the value shown indicates the Kd calculated from the rate constants, $kon$ and $koff$. […]

[4] = biological target: T3, extracellular domain of the alpha subunit of the human FcεRI (aa 1-176), baculovirus-derived (human, UniProt P12319 26-201); test: competitive phage ELISA: peptide-phage with soluble FcεRI on FcεRI-coated plate
T3 construct: range 1-176; also called soluble FcεRI; baculovirus-derived FcεRI
T3 sequence (looked up): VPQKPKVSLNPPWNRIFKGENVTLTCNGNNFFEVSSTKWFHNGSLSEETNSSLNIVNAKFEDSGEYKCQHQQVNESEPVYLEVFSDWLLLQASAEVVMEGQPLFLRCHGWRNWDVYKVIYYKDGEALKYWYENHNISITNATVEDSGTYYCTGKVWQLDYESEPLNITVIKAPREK
Method: as §1

[5] = biological target: T4, alpha subunit of the human FcεRI receptor expressed on cells (human, UniProt P12319 26-257); test: inhibition of 125I-IgE binding to CHO cells expressing FcεRI alpha; 7-10 days after dissolving, when the homodimer had formed
T4 construct: whole, on cells; on rat basophil RBL-48 cells in the histamine release assay; also called CHO FcεRI+ cells; cell surface expressed FcεRI
T4 sequence (looked up): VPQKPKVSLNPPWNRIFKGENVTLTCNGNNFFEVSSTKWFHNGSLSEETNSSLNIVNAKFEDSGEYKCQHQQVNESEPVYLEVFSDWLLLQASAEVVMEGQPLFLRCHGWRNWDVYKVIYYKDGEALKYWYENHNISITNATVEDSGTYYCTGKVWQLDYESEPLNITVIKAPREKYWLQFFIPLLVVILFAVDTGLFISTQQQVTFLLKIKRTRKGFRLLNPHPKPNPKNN
Method: (§2) To determine the ability of peptides to inhibit IgE binding to FcεRI, a cell-based binding assay was used with radiolabeled IgE. Chinese hamster ovary cells expressing the alpha subunit of the human FcεRI receptor were cultured overnight in Falcon 96 well microtiter plates at a concentration of 5 ×10^4 cells per well. The following day the cells were rinsed three times with PBS and then once with F12/DMEM. Peptide stocks were reconstituted in 100 mM Hepes buffered water, pH 7.2, at a concentration of 5 mg/mL. Working concentrations of the peptide were diluted in assay buffer (see below). 75 uL of a desired concentration of peptide was added to the top row of a separate 96 well microtiter plate and serially diluted 1:3 in 50 uL of the assay buffer (F12/DMEM, 1% BSA, 0.05% NaN_3 and 0.025 mM Hepes pH 7.2). Starting concentrations ranged from 50–500 uM. Next, 50 uL of the diluted peptide was transferred to the 96 microtiter well plate containing a monolayer of CHO FcεRI+ cells. […] Cells were
The size of each peptide was confirmed by mass spectrometry. […] This increase over time was not observed with the other peptides.

[6] = biological target: T4, alpha subunit of the human FcεRI …; test: inhibition of 125I-IgE binding to CHO cells expressing FcεRI alpha; freshly dissolved peptide (monomer)
Method: as §2, with “Cells were […]” for “Cells were”

FcεRI-IgG [7] = biological target: T5, FcεRI-IgG (UniProt P12319 26-205); test: g3 phage ELISA on immobilized FcεRI-IgG
T5 construct: extracellular domain; Produced from CHO cells (Genentech); also called FcεRI-Fc; bivalent fusion protein of the extracellular domain of FcεRI and the Fc domain of IgG; not shown: Fc domain of IgG
T5 sequence (looked up): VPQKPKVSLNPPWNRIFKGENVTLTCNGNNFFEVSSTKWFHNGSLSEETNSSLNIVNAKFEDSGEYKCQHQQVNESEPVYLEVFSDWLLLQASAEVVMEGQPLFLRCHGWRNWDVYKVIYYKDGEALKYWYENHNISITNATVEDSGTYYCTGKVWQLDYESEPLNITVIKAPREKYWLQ

FcεRI-IgG [8] = biological target: T5, FcεRI-IgG; test: competitive phage ELISA; reference of the N-terminal truncation series
Method: (§3) This oligonucleotide was annealed with a g3 single stranded DNA phagemid template. The mutagenesis reaction was transformed into XL-1 Blue *E. coli* and plated on LB-carb+ agar plates. Individual colonies were propagated in 5 mL of 2YT broth, tetracycline, carbenicillin and VCSM13 helper phage (Stratagene). Single stranded DNA was isolated from the purified phage particles and sequenced to confirm the insertion of the phage peptide sequence. 25 mL preparations of g3 phage clones were propagated overnight and purified by PEG precipitation. After resuspension of the phage pellet in 1.0 mL of PBS, it was serially diluted 1/3 and incubated with immobilized FcεRI-IgG 2 ug/mL in a 96 well Maxisorp microtiter plate for 1 hour at room temperature. The wells were washed 10× with PBST then incubated with 100 uL of anti M13 phage HRP as described above. An OD(492) value corresponding to less than 50% binding was selected and the purified phage clones were diluted to yield this normalized level of signal. […] The mixture was then transferred to 96 well microtiter dishes containing immobilized FcεRI-IgG. After a 1-hour incubation period, the plates were washed 10 times, incubated with anti M13-HRP conjugated antibody and developed with OPD as described above.
(§4) In addition, stepwise N-terminal and C-terminal truncations of the peptide sequence were constructed. […]

FcεRI-IgG [9] = biological target: T5, FcεRI-IgG; test: competitive phage ELISA: g3 peptide-phage on immobilized FcεRI-IgG, soluble FcεRI-IgG titrated
Method: as §3
In addition, stepwise N-terminal and C-terminal truncations of the peptide sequence were constructed. All constructs were made by designing oligonucleotides corresponding to the desired substitution or truncation, with an additional 18 bp of DNA overlapping the peptide or g3 phage DNA sequence. The phage clones were propagated overnight following infection in XL-1 Blue *E. coli*. Purified phage preparations were titered and assayed for binding to immobilized receptor. FcεRI-IgG competition assays were performed as described above.

FcεRI-IgG [10] = biological target: T5, FcεRI-IgG; test: competitive phage ELISA; reference of the C-terminal truncation series
Method: as §3, §4

[11] = biological target: T1, extracellular domain of the alpha …; test: competitive phage ELISA on FcεRI (FIG. 1)

## IVCPRLCYELDYELCPDVCYV (not shown: M13 g3p display) [phage clone IVCPRLCYELDYELCPDVCYV from the IGE120-phage library (NBO895-619D)]
[1]
  fold improved affinity over IGE120: ~2 fold

B1: IGE143 (peptide)
peptide: VQCPHFCYVGGHALCADVCYVGR
modifications: disulfide (positions not given here); also: two intramolecular disulfide bonds, pairing not given here
[2]
  fold loss in activity against its control peptide: > 100 fold

## VQCPHFCYELDYELCPDVCYV-NH2 (disulfide 7-15, 3-19, also called peptide) [IGE134]
[3]
  Kd: 32 nM

B2: IGE120-phage (IVCPRLCYVGGKALCPDVCYV displayed as a fusion to g3p of bacteriophage M13) (peptide)
peptide: IVCPRLCYVGGKALCPDVCYVGGGSGGGGSGSGDY
notes: not shown: g3p of bacteriophage M13, continuing after residue 257 of the mature protein
[4]
  Relative IC50: 1 fold, relative to IGE120-phage

B3: IGE037 (peptide)
peptide: ALCPAVCYV-NH2
modifications: disulfide 3-7 (inferred); also: reshuffles over 3-12 days into disulfide-linked homodimer, held to be active form
notes: Made as a cyclic monomer
[5]
  IC50: 25000 nM
[6]
  IC50: ~300000 nM

B4: g3c.21 peptide-phage (peptide)
peptide: CTEGPWGWVCMAAD
modifications: not fully specified; cysteine pairing not given here
notes: Monovalent g3p phage display; not shown: fused to M13 gene-3 protein (g3p) on phage
FcεRI-IgG [7]
  binding result: no binding

B5: g3c.17 peptide-phage (peptide)
peptide: RCTEGPWGWVCMAAD
modifications: not fully specified; cysteine pairing not given here
notes: as for B4
FcεRI-IgG [7]
  binding result: no binding

B6: g3c.42 peptide-phage (peptide)
peptide: NLPRCTEGPWGWVCMAAD
modifications: not fully specified (bridges); cysteine pairing not given here
notes: as for B4
FcεRI-IgG [8]
  Relative (IC50) (fold weaker): 1 fold
FcεRI-IgG [9]
  IC50: 5.6 nM and 3.1 nM
FcεRI-IgG [10]
  Relative (IC50) (fold weaker): 1 fold

## VQCPHFCYVGGKALCPDVCYV (not shown: M13 g3p display) [IGE122-phage VQCPHFCYVGGKALCPDVCYV]
[11]
  binding result: binds
